Data as given in the supplement of paper PMC9732359.
± gives the uncertainty stated by the source.

Test: protein stability index of a GFP-peptide fusion (yeast GPS) (PSI 1-4); higher = more stable; sorted into four equal gates, so the index is relative within each strain
In short: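 Tiled 17-residue peptides from yeast proteins were fused downstream of GFP on a plasmid that also expresses Cherry, and the pooled library was carried in yeast. Mid-log cultures grown in leucine-free medium were sorted into four equal gates by GFP/Cherry fluorescence ratio. Plasmids from each gate were PCR-amplified and Illumina-sequenced, and reads were assigned to strains by barcodes. Each peptide's protein stability index is the sum, over gates, of the gate's read frequency multiplied by its gate number.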

## HTPTIASYLTPLLEAKK [SSN2]
doa10∆
  protein stability index: 3.04 ± 0.063
pdr5∆
  protein stability index: 3.04 ± 0.051
san1∆
  protein stability index: 3.01 ± 0.049
ubr1∆
  protein stability index: 3.07 ± 0.048

## YVFNARPDGVHVINVGK [RPS0A]
pdr5∆
  protein stability index: 2.78 ± 0.24
ubr1∆
  protein stability index: 2.55 ± 0.11

## KKEELVEIAYHKCDELI [RPO31]
doa10∆
  protein stability index: 3.13 ± 0.25
pdr5∆
  protein stability index: 2.96 ± 0.1
ubr1∆
  protein stability index: 3.14 ± 0.093

## FSNVELPQCIIPSSYIK [ARP7]
doa10∆
  protein stability index: 2.38 ± 0.042
pdr5∆
  protein stability index: 2.38 ± 0.041
san1∆
  protein stability index: 2.28 ± 0.051
ubr1∆
  protein stability index: 2.45 ± 0.032

## SLQYIERQQDELENFLD [YJL041W/NSP1]
doa10∆
  protein stability index: 3.1 ± 0.1
pdr5∆
  protein stability index: 3.04 ± 0.14
san1∆
  protein stability index: 3.43 ± 0.096
ubr1∆
  protein stability index: 3.12 ± 0.054

## QELQIKRDVLDDLYRKL [CSE2]
doa10∆
  protein stability index: 2.27 ± 0.14
pdr5∆
  protein stability index: 2.19 ± 0.15

## VKARHGGCDYIFSLLTG [CYT1]
doa10∆
  protein stability index: 2.88 ± 0.1
pdr5∆
  protein stability index: 3.02 ± 0.12
san1∆
  protein stability index: 2.61 ± 0.086
ubr1∆
  protein stability index: 2.72 ± 0.053

## EFRSAAGQLALDLANSG [YDL116W/NUP84]
doa10∆
  protein stability index: 2.79 ± 0.14
san1∆
  protein stability index: 2.82 ± 0.14
ubr1∆
  protein stability index: 3 ± 0.12

## SLFSHRKHTRGDVSSGL [BRN1]
doa10∆
  protein stability index: 3.28 ± 0.19
pdr5∆
  protein stability index: 3.01 ± 0.17
san1∆
  protein stability index: 3.28 ± 0.16
ubr1∆
  protein stability index: 3.22 ± 0.059

## NTSLNINGWKFESLPLK [SWP82]
doa10∆
  protein stability index: 2.88 ± 0.055
pdr5∆
  protein stability index: 2.96 ± 0.05
san1∆
  protein stability index: 2.96 ± 0.053
ubr1∆
  protein stability index: 3.06 ± 0.043

## QNVAGDKTAVKLDTEVK [SWP82]
ubr1∆
  protein stability index: 3.32 ± 0.089

## TSFGQPQSAPNQMGMGT [YOR098C/NUP1]
doa10∆
  protein stability index: 2.81 ± 0.094
pdr5∆
  protein stability index: 2.83 ± 0.18
san1∆
  protein stability index: 2.9 ± 0.15
ubr1∆
  protein stability index: 2.41 ± 0.17

## VQGAAPWDTSLEVGRRF [MCD1]
doa10∆
  protein stability index: 3.48 ± 0.13
pdr5∆
  protein stability index: 3.39 ± 0.13
san1∆
  protein stability index: 3.28 ± 0.088
ubr1∆
  protein stability index: 3.43 ± 0.16

## KSSLYSAQDLLDKHERK [YIL149C/MLP2]
doa10∆
  protein stability index: 3.05 ± 0.084
pdr5∆
  protein stability index: 3.01 ± 0.075
san1∆
  protein stability index: 2.83 ± 0.11
ubr1∆
  protein stability index: 3.15 ± 0.036

## DLQRTQTLSEKEYQCSA [YIL149C/MLP2]
doa10∆
  protein stability index: 2.98 ± 0.1
pdr5∆
  protein stability index: 2.97 ± 0.091
san1∆
  protein stability index: 3.11 ± 0.069
ubr1∆
  protein stability index: 2.96 ± 0.069

## IVALTNAKDKERLQLLE [SMC3]
doa10∆
  protein stability index: 3.22 ± 0.19
pdr5∆
  protein stability index: 3.29 ± 0.13
san1∆
  protein stability index: 3.01 ± 0.07
ubr1∆
  protein stability index: 3.21 ± 0.11

## QLVYKRGFGKINKQRVP [RPL7A]
doa10∆
  protein stability index: 2.46 ± 0.071
pdr5∆
  protein stability index: 2.4 ± 0.079
san1∆
  protein stability index: 3.24 ± 0.11
ubr1∆
  protein stability index: 2.85 ± 0.059

## ARTIKATLPYIKQDIPI [RPB2]
doa10∆
  protein stability index: 2.73 ± 0.1
pdr5∆
  protein stability index: 2.3 ± 0.061
san1∆
  protein stability index: 2.26 ± 0.075
ubr1∆
  protein stability index: 2.74 ± 0.072

## LEEEFVSNSEILKPFEK [RPT2]
doa10∆
  protein stability index: 2.85 ± 0.074
pdr5∆
  protein stability index: 2.88 ± 0.054
san1∆
  protein stability index: 3.05 ± 0.073
ubr1∆
  protein stability index: 2.51 ± 0.14

## QHLQQLKMQQQQQQQQQ [GAL11]
doa10∆
  protein stability index: 2.21 ± 0.077
pdr5∆
  protein stability index: 2.23 ± 0.059
san1∆
  protein stability index: 2.02 ± 0.12
ubr1∆
  protein stability index: 2.09 ± 0.061

## IPKQLLDDEKIFSQTTN [YJL039C/NUP192]
doa10∆
  protein stability index: 2.55 ± 0.077
pdr5∆
  protein stability index: 2.77 ± 0.051
san1∆
  protein stability index: 2.69 ± 0.059
ubr1∆
  protein stability index: 3.1 ± 0.052

## AIIYQRGKDGKLHVAAK [YGL100W/SEH1]
doa10∆
  protein stability index: 3.25 ± 0.12
pdr5∆
  protein stability index: 3.31 ± 0.1
san1∆
  protein stability index: 2.9 ± 0.13
ubr1∆
  protein stability index: 3.02 ± 0.18

## PLRLRLYDNFVSKFYDK [RPN9]
doa10∆
  protein stability index: 3.17 ± 0.068
pdr5∆
  protein stability index: 3.18 ± 0.068
san1∆
  protein stability index: 3.17 ± 0.064
ubr1∆
  protein stability index: 2.96 ± 0.079

## HHRIFDSSAHFKGALTI [YMR129W/POM152]
doa10∆
  protein stability index: 2.56 ± 0.073
pdr5∆
  protein stability index: 2.73 ± 0.084
san1∆
  protein stability index: 2.44 ± 0.14
ubr1∆
  protein stability index: 2.62 ± 0.053

## ATSVESVDIGVETILSG [FAS2]
doa10∆
  protein stability index: 2.93 ± 0.084
pdr5∆
  protein stability index: 2.9 ± 0.089
san1∆
  protein stability index: 2.13 ± 0.089
ubr1∆
  protein stability index: 3.1 ± 0.069

## NANQQFLPFNNSASNNG [SWI1]
doa10∆
  protein stability index: 3 ± 0.052
pdr5∆
  protein stability index: 2.97 ± 0.052
san1∆
  protein stability index: 2.96 ± 0.042
ubr1∆
  protein stability index: 3.02 ± 0.06

## QRFVGHKSDVMSVDIDK [ASC1]
doa10∆
  protein stability index: 3.04 ± 0.095
pdr5∆
  protein stability index: 3.06 ± 0.061
san1∆
  protein stability index: 2.69 ± 0.082
ubr1∆
  protein stability index: 2.96 ± 0.071

## IERYPLKVTKKHGAKKV [RPL27A]
doa10∆
  protein stability index: 3.37 ± 0.092
pdr5∆
  protein stability index: 3.6 ± 0.14
san1∆
  protein stability index: 3.54 ± 0.087
ubr1∆
  protein stability index: 3.23 ± 0.1
